This passage reports melt temperature of the Tm–actin interaction and melt temperature of the Tn–Tm–actin interaction (Tn with cTnT R92L) results from article PMC5575768.

The target of this assay is filamentous actin from rabbit skeletal muscle (rabbit) (UniProt P68135). Put plainly: differential scanning calorimetry. (In general: DSC measures the heat that a sample takes up or gives off during a temperature scan.)

In the case of “α-tropomyosin D230N, with N-terminal ala-ser (natural protein)”, the melt temperature of the Tm–actin interaction stood at 47.9 °C.

In turn, “α-tropomyosin, wild type, with N-terminal ala-ser (natural protein)” returned a melt temperature of the Tm–actin interaction of 47.2 °C and a melt temperature of the Tn–Tm–actin interaction (Tn with cTnT R92L) of 47.3 °C.
